In patent US20240350835A1 (AMBRX, published 2024):

How the values were obtained:
[1] = target: T1, prostate specific membrane antigen (PSMA) (UniProt Q04609 1-750, limits assumed); assay: cell-based or functional assay
[2] = target: T1, prostate specific membrane antigen …; assay: FACS, HEK293 supernatants on LnCap cells expressing PSMA
Excerpt: Example 2: Antibody Humanization-Parental mouse J591 (Liu et al., Cancer Research, 57, […], 1997) antibody was humanized by selecting human frameworks based on sequence identity with the mouse framework sequence. The light chain and heavy chain CDRs from the mouse antibody were grafted onto the human frameworks, respectively, and analyzed for binding to PSMA antigen. Humanized variants were generated by pairing four human heavy chain frameworks with six light chain frameworks. The variants were expressed transiently in HEK293 cells and the supernatants were tested for binding to the PSMA antigen expressed in LnCap cells by FACS. Table 4 describes a selected heavy chain variable region sequence and 4 light chain variable region sequences used for further studies. […] ID Nos: 8 and the light chain sequence of SEQ. […] ID Nos: 10 and the light chain sequence of SEQ. […] ID Nos: 12 and the light chain sequence of SEQ. […] ID Nos: 14 and the light chain sequence of SEQ. ID Nos: 15.

T1 sequence (Q04609 whole entry): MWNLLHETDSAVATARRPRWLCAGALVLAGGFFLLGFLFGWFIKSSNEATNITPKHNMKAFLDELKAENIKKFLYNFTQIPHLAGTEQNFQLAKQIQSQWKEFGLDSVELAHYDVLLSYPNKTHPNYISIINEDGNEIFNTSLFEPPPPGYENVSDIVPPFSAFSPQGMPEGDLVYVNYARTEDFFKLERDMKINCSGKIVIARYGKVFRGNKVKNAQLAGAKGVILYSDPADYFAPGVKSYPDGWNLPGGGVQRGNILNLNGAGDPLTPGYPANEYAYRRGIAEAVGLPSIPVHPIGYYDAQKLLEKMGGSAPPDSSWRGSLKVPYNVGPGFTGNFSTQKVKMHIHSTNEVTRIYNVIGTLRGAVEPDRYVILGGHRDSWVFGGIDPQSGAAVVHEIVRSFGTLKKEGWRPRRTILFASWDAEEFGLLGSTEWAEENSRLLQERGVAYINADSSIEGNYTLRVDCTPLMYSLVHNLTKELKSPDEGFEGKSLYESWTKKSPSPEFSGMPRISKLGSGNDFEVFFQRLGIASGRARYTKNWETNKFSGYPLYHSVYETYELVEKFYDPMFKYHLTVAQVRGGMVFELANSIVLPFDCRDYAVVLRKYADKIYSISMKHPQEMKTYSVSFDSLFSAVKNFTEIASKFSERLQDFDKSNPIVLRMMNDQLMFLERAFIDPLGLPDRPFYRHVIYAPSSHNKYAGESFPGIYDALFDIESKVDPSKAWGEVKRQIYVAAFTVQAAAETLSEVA

Binder | Cell Killing (%), C4-2 cell line [1] | IC50 (nM), in vitro cell killing in C4-2 cell line (Cell Titer Glo, 96 h) [1] | binding result [2]
Humanized Anti-PSMA Antibody Variant 1 ADC, MMAE payload, Short Cleavable (Valine-Citruline-Acetyl) linker (antibody, human IgG1, kappa, V domains shown, para-acetyl phenylalanine (pAF) at position A114 (Kabat numbering; first residue of the heavy chain constant region), conjugated to short cleavable (Valine-Citruline-Acetyl) MMAE drug-linker) VH: QVQLVQSGAEVKKPGASVKVSCKASGYTFTEYTIHWVRQAPGQRLEWMGNINPNNGGTTYNQKFEDRVTITRDTSASTAYMELSSLRSEDTAVYYCAAGWNFDYWGQGTTLTVSS VL: DIQLTQSPSFLSASVGDRVTITCKASQDVGTAVDWYQQKPGKAPKLLIYWASTRHTGVPSRFSGSGSGTEFTLTISSLQPEDFATYYCQQYNSYPLTFGGGTKVEIKR | 81.5% | 0.542 nM | –
Humanized Anti-PSMA Antibody Variant 2 ADC, MMAE payload, Short Cleavable (Valine-Citruline-Acetyl) linker (antibody, human IgG1, kappa, V domains shown, para-acetyl phenylalanine (pAF) at position A114 (Kabat numbering; first residue of the heavy chain constant region), conjugated to short cleavable (Valine-Citruline-Acetyl) MMAE drug-linker) VH: QVQLVQSGAEVKKPGASVKVSCKASGYTFTEYTIHWVRQAPGQRLEWMGNINPNNGGTTYNQKFEDRVTITRDTSASTAYMELSSLRSEDTAVYYCAAGWNFDYWGQGTTLTVSS VL: DIQLTQSPSFLSASVGDRVTITCKASQDVGTAVDWYQQKPGKAPKLLIYWASTRHTGVPSRFSGSGSGTEFTLTISSLQSEDFATYYCQQYNSYPLTFGGGTKVEIKR | 81.5% | 0.52 nM | –
Chimeric Anti-PSMA Antibody ADC, MMAE payload, Short Cleavable (Valine-Citruline-Acetyl) linker (antibody, human IgG1, kappa, V domains shown, para-acetyl phenylalanine (pAF) at position A114 (Kabat numbering; first residue of the heavy chain constant region), conjugated to short cleavable (Valine-Citruline-Acetyl) MMAE drug-linker) VH: EVQLQQSGPELVKPGTSVRISCKTSGYTFTEYTIHWVKQSHGKSLEWIGNINPNNGGTTYNQKFEDKATLTVDKSSSTAYMELRSLTSEDSAVYYCAAGWNFDYWGQGTTLTVSS VL: DIVMTQSHKFMSTSVGDRVSIICKASQDVGTAVDWYQQKPGQSPKLLIYWASTRHTGVPDRFTGSGSGTDFTLTITNVQSEDLADYFCQQYNSYPLTFGAGTKVEIKR | 82.5% | 0.425 nM | –
Humanized Anti-PSMA Antibody Variant 2 ADC, MMAE payload, Non-Cleavable (PEG3) linker (antibody, human IgG1, kappa, V domains shown, para-acetyl phenylalanine (pAF) at position A114 (Kabat numbering; first residue of the heavy chain constant region), conjugated to non-cleavable (PEG3) MMAE drug-linker) VH: QVQLVQSGAEVKKPGASVKVSCKASGYTFTEYTIHWVRQAPGQRLEWMGNINPNNGGTTYNQKFEDRVTITRDTSASTAYMELSSLRSEDTAVYYCAAGWNFDYWGQGTTLTVSS VL: DIQLTQSPSFLSASVGDRVTITCKASQDVGTAVDWYQQKPGKAPKLLIYWASTRHTGVPSRFSGSGSGTEFTLTISSLQSEDFATYYCQQYNSYPLTFGGGTKVEIKR | 67% | 12.5 nM | –
Chimeric Anti-PSMA Antibody ADC, MMAE payload, Non-Cleavable (PEG3) linker (antibody, human IgG1, kappa, V domains shown, para-acetyl phenylalanine (pAF) at position A114 (Kabat numbering; first residue of the heavy chain constant region), conjugated to non-cleavable (PEG3) MMAE drug-linker) VH: EVQLQQSGPELVKPGTSVRISCKTSGYTFTEYTIHWVKQSHGKSLEWIGNINPNNGGTTYNQKFEDKATLTVDKSSSTAYMELRSLTSEDSAVYYCAAGWNFDYWGQGTTLTVSS VL: DIVMTQSHKFMSTSVGDRVSIICKASQDVGTAVDWYQQKPGQSPKLLIYWASTRHTGVPDRFTGSGSGTDFTLTITNVQSEDLADYFCQQYNSYPLTFGAGTKVEIKR | 62.5% | 10.2 nM | –
Humanized Anti-PSMA Antibody Variant 1 ADC, MMAF payload, Non-Cleavable (PEG3) linker (antibody, human IgG1, kappa, V domains shown, para-acetyl phenylalanine (pAF) at position A114 (Kabat numbering; first residue of the heavy chain constant region), conjugated to non-cleavable (PEG3) MMAF drug-linker) VH: QVQLVQSGAEVKKPGASVKVSCKASGYTFTEYTIHWVRQAPGQRLEWMGNINPNNGGTTYNQKFEDRVTITRDTSASTAYMELSSLRSEDTAVYYCAAGWNFDYWGQGTTLTVSS VL: DIQLTQSPSFLSASVGDRVTITCKASQDVGTAVDWYQQKPGKAPKLLIYWASTRHTGVPSRFSGSGSGTEFTLTISSLQPEDFATYYCQQYNSYPLTFGGGTKVEIKR | 80.5% | 0.543 nM | –
Humanized Anti-PSMA (full length) Variant 2 (antibody, human IgG1, kappa, V domains shown, Humanized J591 (CDR graft), full length; expressed transiently in HEK293 cells, supernatant tested by FACS on LnCap cells; also called humanized anti-PSMA variant 2; Humanized Anti-PSMA Antibody Variant 2) VH: QVQLVQSGAEVKKPGASVKVSCKASGYTFTEYTIHWVRQAPGQRLEWMGNINPNNGGTTYNQKFEDRVTITRDTSASTAYMELSSLRSEDTAVYYCAAGWNFDYWGQGTTLTVSS VL: DIQLTQSPSFLSASVGDRVTITCKASQDVGTAVDWYQQKPGKAPKLLIYWASTRHTGVPSRFSGSGSGTEFTLTISSLQSEDFATYYCQQYNSYPLTFGGGTKVEIKR | – | – | binds
Humanized Anti-PSMA (full length) Variant 3 (antibody, human IgG1, kappa, V domains shown, Humanized J591 (CDR graft), full length; expressed transiently in HEK293 cells, supernatant tested by FACS on LnCap cells; also called humanized anti-PSMA variant 3) VH: QVQLVQSGAEVKKPGASVKVSCKASGYTFTEYTIHWVRQAPGQRLEWMGNINPNNGGTTYNQKFEDRVTITRDTSASTAYMELSSLRSEDTAVYYCAAGWNFDYWGQGTTLTVSS VL: DIQLTQSPSFLSASVGDRVTITCKASQDVGTAVDWYQQKPGKAPKLLIYWASTRHTGVPDRFSGSGSGTEFTLTISSLQPEDFATYYCQQYNSYPLTFGGGTKVEIKR | – | – | binds
Humanized Anti-PSMA (full length) Variant 4 (antibody, human IgG1, kappa, V domains shown, Humanized J591 (CDR graft), full length; expressed transiently in HEK293 cells, supernatant tested by FACS on LnCap cells; also called humanized anti-PSMA variant 4) VH: QVQLVQSGAEVKKPGASVKVSCKASGYTFTEYTIHWVRQAPGQRLEWMGNINPNNGGTTYNQKFEDRVTITRDTSASTAYMELSSLRSEDTAVYYCAAGWNFDYWGQGTTLTVSS VL: DIQLTQSPSFLSASVGDRVTITCKASQDVGTAVDWYQQKPGKAPKLLIYWASTRHTGVPSRFSGSGSGTEFTLTISNLQPEDFATYYCQQYNSYPLTFGGGTKVEIKR | – | – | binds
